Patent publication US20030133924A1

Tests used:
[1] = target: Mannose 6-phosphate (M6P) receptor purified from bovine liver, coupled to NHS-Sepharose 4B FF resin (bovine); experiment: M6P receptor affinity column, 0-1 mM then 5 mM M6P elution; GBA activity in fractions (FIG. 1A)
[2] = target: Mannose 6-phosphate (M6P) receptor purified from bovine liver, coupled to NHS-Sepharose 4B FF resin (bovine); experiment: M6P receptor affinity column, 0-1 mM then 5 mM M6P elution; GBA activity in fractions (FIG. 1B)

Sequence of Mannose 6-phosphate (M6P) receptor purified from bovine liver, coupled to NHS-Sepharose 4B FF resin (bovine) (P08169 45-2499): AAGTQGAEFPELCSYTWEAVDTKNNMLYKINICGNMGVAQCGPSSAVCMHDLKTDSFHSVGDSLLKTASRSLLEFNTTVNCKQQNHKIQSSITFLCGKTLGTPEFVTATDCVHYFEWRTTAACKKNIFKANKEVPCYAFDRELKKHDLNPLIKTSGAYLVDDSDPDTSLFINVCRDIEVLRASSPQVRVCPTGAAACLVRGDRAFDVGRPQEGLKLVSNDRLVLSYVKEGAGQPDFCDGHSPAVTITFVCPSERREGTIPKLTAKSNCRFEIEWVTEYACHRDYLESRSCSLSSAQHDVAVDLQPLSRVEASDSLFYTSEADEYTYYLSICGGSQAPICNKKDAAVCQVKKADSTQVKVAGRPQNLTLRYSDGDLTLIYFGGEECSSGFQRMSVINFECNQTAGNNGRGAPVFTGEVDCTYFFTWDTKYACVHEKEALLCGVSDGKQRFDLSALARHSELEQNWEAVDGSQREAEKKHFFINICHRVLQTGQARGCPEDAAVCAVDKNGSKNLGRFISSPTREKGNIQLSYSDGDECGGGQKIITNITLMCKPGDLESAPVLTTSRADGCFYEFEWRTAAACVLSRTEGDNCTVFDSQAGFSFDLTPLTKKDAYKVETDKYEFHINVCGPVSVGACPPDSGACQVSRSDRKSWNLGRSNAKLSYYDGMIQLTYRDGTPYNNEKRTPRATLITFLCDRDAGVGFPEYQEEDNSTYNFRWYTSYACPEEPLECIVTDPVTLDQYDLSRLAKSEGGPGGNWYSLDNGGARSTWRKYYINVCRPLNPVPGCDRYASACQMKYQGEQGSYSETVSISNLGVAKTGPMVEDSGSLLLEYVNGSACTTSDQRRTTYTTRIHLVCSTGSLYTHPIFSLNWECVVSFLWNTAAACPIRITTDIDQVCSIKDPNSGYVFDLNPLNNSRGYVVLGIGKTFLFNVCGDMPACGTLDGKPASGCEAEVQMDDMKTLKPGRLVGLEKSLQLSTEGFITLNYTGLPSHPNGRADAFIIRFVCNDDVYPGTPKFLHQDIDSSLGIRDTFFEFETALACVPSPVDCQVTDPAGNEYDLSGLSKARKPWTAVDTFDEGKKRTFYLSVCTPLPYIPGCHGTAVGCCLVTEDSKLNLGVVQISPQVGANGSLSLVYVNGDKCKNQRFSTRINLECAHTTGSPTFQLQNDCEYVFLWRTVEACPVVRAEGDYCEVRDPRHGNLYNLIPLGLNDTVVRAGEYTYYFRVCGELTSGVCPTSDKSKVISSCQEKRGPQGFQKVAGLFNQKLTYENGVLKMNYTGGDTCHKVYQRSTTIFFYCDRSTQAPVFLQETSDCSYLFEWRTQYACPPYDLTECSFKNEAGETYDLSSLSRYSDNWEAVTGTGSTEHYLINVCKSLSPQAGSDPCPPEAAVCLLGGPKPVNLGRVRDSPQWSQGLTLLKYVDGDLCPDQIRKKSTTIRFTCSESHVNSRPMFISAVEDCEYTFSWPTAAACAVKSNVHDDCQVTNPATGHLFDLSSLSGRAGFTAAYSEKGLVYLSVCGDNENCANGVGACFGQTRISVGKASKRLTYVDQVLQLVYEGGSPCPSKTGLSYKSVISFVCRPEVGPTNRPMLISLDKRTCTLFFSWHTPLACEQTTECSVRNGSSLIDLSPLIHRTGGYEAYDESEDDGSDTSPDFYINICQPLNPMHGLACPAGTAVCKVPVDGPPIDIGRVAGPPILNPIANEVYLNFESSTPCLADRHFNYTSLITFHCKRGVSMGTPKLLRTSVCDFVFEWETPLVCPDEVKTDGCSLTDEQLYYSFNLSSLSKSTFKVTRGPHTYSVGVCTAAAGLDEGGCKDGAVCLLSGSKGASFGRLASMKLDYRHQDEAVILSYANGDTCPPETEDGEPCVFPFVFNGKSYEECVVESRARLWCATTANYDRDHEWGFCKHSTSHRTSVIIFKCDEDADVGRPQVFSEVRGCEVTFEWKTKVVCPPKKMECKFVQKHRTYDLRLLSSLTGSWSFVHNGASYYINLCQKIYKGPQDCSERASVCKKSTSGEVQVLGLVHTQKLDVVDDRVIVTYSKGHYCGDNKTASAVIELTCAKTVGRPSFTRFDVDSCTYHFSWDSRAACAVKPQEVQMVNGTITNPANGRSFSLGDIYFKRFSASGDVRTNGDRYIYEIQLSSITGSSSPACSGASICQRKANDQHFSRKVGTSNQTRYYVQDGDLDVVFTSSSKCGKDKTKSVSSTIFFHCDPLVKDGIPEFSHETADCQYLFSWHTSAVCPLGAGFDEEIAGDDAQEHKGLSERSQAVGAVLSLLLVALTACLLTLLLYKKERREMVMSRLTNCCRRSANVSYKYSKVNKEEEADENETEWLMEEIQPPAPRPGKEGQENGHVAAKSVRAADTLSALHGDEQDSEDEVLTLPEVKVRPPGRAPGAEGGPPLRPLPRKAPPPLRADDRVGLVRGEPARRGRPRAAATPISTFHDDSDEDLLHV

percent of sample eluted prior to the start of the M6P gradient (not retained on the receptor column) [1] [%]	percent of GBA activity eluted after the start of the M6P gradient (retained on the receptor column) [2] [%]	percent of the retained GBA activity eluted only after the addition of 5 mM M6P [2] [%]	Substance
> 99			human acid β-glucocerebrosidase (GBA), partially purified, before phosphorylation (from UniProt P04062 40-536) (enzyme)
	77	35	highly phosphorylated human acid β-glucocerebrosidase (HP-GBA), treated with GlcNAc-phosphotransferase and uncovering enzyme (from UniProt P04062 40-536)
